Measured values as given in patent US11504441B2, “Radiolabeled compounds targeting the prostate-specific membrane antigen” (PROVINCIAL HEALTH SERVICES AUTHORITY, priority 2019, dated 2022).

How the values were obtained:
[1] = tested on: PSMA-expressing LNCaP cancer xenografts; conditions: mouse, in vivo
Protocol: (§1) LNCaP cell line was obtained from ATCC (LNCaP clone FGC, CRL-1740). […] Cells were cultured in PRM I 1640 medium supplemented with 10% FBS, penicillin (100 U/mL) and streptomycin (100 μg/mL) at 37° C. in a humidified incubator containing 5% CO2. Cells grown to 80-90% confluence were then washed with sterile phosphate-buffered saline (1× PBS pH 7.4) and collected by trypsinization. The collected cells concentration was counted with a Hausser Scientific (Horsham, Pa.) Hemacytometer.
(§2) Imaging and biodistribution experiments were performed using NODSCID 1 L2RγKO male mice. Mice were anesthetized by inhalation with 2% isoflurane in oxygen, and implanted subcutaneously with 1×10^7 LNCaP cells behind left shoulder. Mice were imaged or used in biodistribution studies when the tumor grew up to reach 5-8 mm in diameter during 5-6 weeks.
(§3) PET imaging experiments were conducted using Siemens Inveon micro PET/CT scanner. Each tumor bearing mouse was injected 6-8 MBq of Ga-68 labeled tracer through the tail vein under anesthesia (2% isoflurane in oxygen). The mice were allowed to recover and roam freely in their cage. After 50 min, the mice were sedated again with 2% isoflurane in oxygen inhalation and positioned in the scanner. A 10-min CT scan was conducted first for localization and attenuation correction after segmentation for reconstructing the PET images. Then, a 10-min static PET imaging was performed to determined uptake in tumor and other organs. The mice were kept warm by a heating pad during acquisition. For biodistribution studies, the mice were injected with the radiotracer as described above. The mice was anesthetized with 2% isoflurane inhalation, and euthanized by CO2 inhalation. Blood was withdrawn immediately from the heart, and the organs/tissues of interest were collected. The collected organs/tissues were weighed and counted using a Perkin Elmer (Waltham, Mass.) Wizard2 2480 gamma counter. The uptake in each organ/tissue was normalized to the injected dose using a standard curve, and expressed as the percentage of the injected dose per gram of tissue (% ID/g).
(§4) LNCaP cell line was obtained from ATCC (LNCaP clone FGC, CRL-1740). […] Cells were cultured in PRM I 1640 medium supplemented with 10% FBS, penicillin (100 U/mL) and streptomycin (100 μg/mL) at 37° C. in a humidified incubator containing 5% CO2. Cells grown to 80-90% confluence were then washed with sterile phosphate-buffered saline (1× PBS pH 7.4), and collected by trypsinization. The collected cell concentration was counted with a Hausser Scientific (Horsham, Pa.) Hemacytometer.
(§5) Imaging and biodistribution experiments were performed using NODSCID 1L2RγKO male mice. Mice were anesthetized by inhalation with 2% isoflurane in oxygen, and implanted subcutaneously with 1×10^7 LNCaP cells behind left shoulder. Mice were imaged or used in biodistribution studies when the tumor grew up to reach 5-8 mm in diameter during 5-6 weeks.
(§6) PET imaging experiments were conducted using Siemens Inveon micro PET/CT scanner. Each tumor bearing mouse was injected 6-8 MBq of Ga-68 or F-18 labeled tracer through the tail vein under anesthesia (2% isoflurane in oxygen). The mice were allowed to recover and roam freely in their cage. After 50 min, the mice were sedated again with 2% isoflurane in oxygen inhalation and positioned in the scanner. A 10-min CT scan was conducted first for localization and attenuation correction after segmentation for reconstructing the PET images. Then, a 10-min static PET imaging was performed to determined uptake in tumor and other organs.
(§7) For biodistribution studies, the mice were injected with the radiotracer as described above.

in vivo = conditions: male, NODSCID 1L2RγKO, mouse, iv, total radioactivity; for excreta dose per gram or mL at 1 h: Urine uptake
Protocol: as §1, §2, §3, §4, §5, §6, §7

SMILES: O=C(O)CCCCC(NC(=O)N[C@@H](CCCCNC(=O)[C@H](Cc1c2ccccc2cc2ccccc12)NC(=O)[C@H]1CC[C@H](CNC(=O)CN2CCN(CC(=O)O)CCN(CC(=O)O)CCN(CC(=O)O)CC2)CC1)C(=O)O)C(=O)O (single isomer, unassigned) [68Ga-HTK03189A, metal not drawn]
- Tumor uptake ([1]; male, NODSCID 1L2RγKO, iv, 1 h): 2.10 ± 0.28 % ID/g
- Blood: Salivary ratio [1]: 4.39 ± 0.44
- Tumor: Blood ratio [1]: 2.41 ± 0.29
- Tumor: Kidney ratio [1]: 0.83 ± 0.21
- Tumor: Muscle ratio [1]: 16.5 ± 4.08
- Tumor: Salivary ratio [1]: 10.5 ± 1.07
- tissue uptake at 1 h (in vivo; Adrenal glands uptake): 0.35 ± 0.06 %ID/g
- tissue uptake at 1 h (in vivo; Blood uptake): 0.89 ± 0.22 %ID/g
- tissue uptake at 1 h (in vivo; Bone uptake): 0.12 ± 0.03 %ID/g
- tissue uptake at 1 h (in vivo; Brain uptake): 0.02 %ID/g
- tissue uptake at 1 h (in vivo; Fat uptake): 0.18 ± 0.11 %ID/g
- tissue uptake at 1 h (in vivo; Heart uptake): 0.24 ± 0.06 %ID/g
- tissue uptake at 1 h (in vivo; Intestine uptake): 0.31 ± 0.18 %ID/g
- tissue uptake at 1 h (in vivo; Kidneys uptake): 2.65 ± 0.69 %ID/g
- tissue uptake at 1 h (in vivo; Lacrimal uptake): 0.18 ± 0.18 %ID/g
- tissue uptake at 1 h (in vivo; Liver uptake): 0.34 ± 0.15 %ID/g
- tissue uptake at 1 h (in vivo; Lungs uptake): 0.68 ± 0.12 %ID/g
- tissue uptake at 1 h (in vivo; Muscle uptake): 0.14 ± 0.04 %ID/g
- tissue uptake at 1 h (in vivo; Pancreas uptake): 0.15 ± 0.04 %ID/g
- tissue uptake at 1 h (in vivo; Salivary uptake): 0.2 ± 0.04 %ID/g
- tissue uptake at 1 h (in vivo; Seminal uptake): 3.61 ± 4.59 %ID/g
- tissue uptake at 1 h (in vivo; Spleen uptake): 0.21 ± 0.1 %ID/g
- tissue uptake at 1 h (in vivo; Stomach uptake): 0.11 ± 0.06 %ID/g
- tissue uptake at 1 h (in vivo; Tail uptake): 0.77 ± 0.3 %ID/g
- tissue uptake at 1 h (in vivo; Testes uptake): 0.23 ± 0.11 %ID/g
- tissue uptake at 1 h (in vivo; Thyroid uptake): 0.25 ± 0.05 %ID/g
- excreta dose per gram or mL at 1 h (in vivo): 343 ± 54.4 %ID/g

SMILES: O=C(O)CCCCC(NC(=O)N[C@@H](CCCCNC(=O)[C@H](Cc1c2ccccc2cc2ccccc12)NC(=O)[C@H]1CC[C@H](CNC(=O)CN2CCN(CC(=O)O)CCN(CC(=O)O)CCN(CC(=O)O)CC2)CC1)C(=O)O)C(=O)O (single isomer, unassigned) [68Ga-HTK03189B, metal not drawn]
- Adrenal glands uptake ([1]; male, NODSCID 1L2RγKO, iv, 1 h): 0.37 ± 0.15 % ID/g
- Blood uptake ([1]; male, NODSCID 1L2RγKO, iv, 1 h): 1.06 ± 0.25 % ID/g
- Bone uptake ([1]; male, NODSCID 1L2RγKO, iv, 1 h): 0.10 ± 0.02 % ID/g
- Brain uptake ([1]; male, NODSCID 1L2RγKO, iv, 1 h): 0.03 ± 0.00 % ID/g
- Fat uptake ([1]; male, NODSCID 1L2RγKO, iv, 1 h): 0.17 ± 0.10 % ID/g
- Heart uptake ([1]; male, NODSCID 1L2RγKO, iv, 1 h): 0.30 ± 0.06 % ID/g
- Intestine uptake ([1]; male, NODSCID 1L2RγKO, iv, 1 h): 0.28 ± 0.07 % ID/g
- Kidneys uptake ([1]; male, NODSCID 1L2RγKO, iv, 1 h): 2.13 ± 0.45 % ID/g
- Lacrimal uptake ([1]; male, NODSCID 1L2RγKO, iv, 1 h): 0.13 ± 0.04 % ID/g
- Liver uptake ([1]; male, NODSCID 1L2RγKO, iv, 1 h): 0.39 ± 0.08 % ID/g
- Lungs uptake ([1]; male, NODSCID 1L2RγKO, iv, 1 h): 0.82 ± 0.22 % ID/g
- Muscle uptake ([1]; male, NODSCID 1L2RγKO, iv, 1 h): 0.12 ± 0.03 % ID/g
- Pancreas uptake ([1]; male, NODSCID 1L2RγKO, iv, 1 h): 0.18 ± 0.05 % ID/g
- Salivary uptake ([1]; male, NODSCID 1L2RγKO, iv, 1 h): 0.22 ± 0.04 % ID/g
- Seminal uptake ([1]; male, NODSCID 1L2RγKO, iv, 1 h): 2.62 ± 4.74 % ID/g
- Spleen uptake ([1]; male, NODSCID 1L2RγKO, iv, 1 h): 0.20 ± 0.05 % ID/g
- Stomach uptake ([1]; male, NODSCID 1L2RγKO, iv, 1 h): 0.11 ± 0.03 % ID/g
- Tail uptake ([1]; male, NODSCID 1L2RγKO, iv, 1 h): 0.90 ± 0.29 % ID/g
- Testes uptake ([1]; male, NODSCID 1L2RγKO, iv, 1 h): 0.26 ± 0.05 % ID/g
- Thyroid uptake ([1]; male, NODSCID 1L2RγKO, iv, 1 h): 0.29 ± 0.08 % ID/g
- Tumor uptake ([1]; male, NODSCID 1L2RγKO, iv, 1 h): 0.67 ± 0.15 % ID/g
- Urine uptake ([1]; male, NODSCID 1L2RγKO, iv, 1 h): 441 ± 138 % ID/g
- Blood: Salivary ratio [1]: 4.86 ± 1.16
- Tumor: Blood ratio [1]: 0.65 ± 0.15
- Tumor: Kidney ratio [1]: 0.32 ± 0.05
- Tumor: Muscle ratio [1]: 5.68 ± 1.12
- Tumor: Salivary ratio [1]: 3.08 ± 0.53

SMILES: O=C(O)CC[C@H](NC(=O)N[C@@H](CCCCNC(=O)[C@H](Cc1c2ccccc2cc2ccccc12)NC(=O)[C@H]1CC[C@H](CNC(=O)CN2CCN(CC(=O)O)CCN(CC(=O)O)CCN(CC(=O)O)CC2)CC1)C(=O)O)C(=O)O [68Ga-HTK03041, metal not drawn]
- tissue uptake at 1 h (in vivo; Adrenal glands uptake): 8.9 ± 2.56 %ID/g
- tissue uptake at 1 h (in vivo; Blood uptake): 1.43 ± 0.3 %ID/g
- tissue uptake at 1 h (in vivo; Bone uptake): 1.29 ± 0.45 %ID/g
- tissue uptake at 1 h (in vivo; Brain uptake): 0.1 ± 0.05 %ID/g
- tissue uptake at 1 h (in vivo; Fat uptake): 2.06 ± 0.59 %ID/g
- tissue uptake at 1 h (in vivo; Heart uptake): 1.82 ± 0.21 %ID/g
- tissue uptake at 1 h (in vivo; Intestine uptake): 1.14 ± 0.18 %ID/g
- tissue uptake at 1 h (in vivo; Kidneys uptake): 170 ± 26.4 %ID/g
- tissue uptake at 1 h (in vivo; Lacrimal uptake): 2.44 ± 1.79 %ID/g
- tissue uptake at 1 h (in vivo; Liver uptake): 1.38 ± 0.25 %ID/g
- tissue uptake at 1 h (in vivo; Lungs uptake): 4.32 ± 0.62 %ID/g
- tissue uptake at 1 h (in vivo; Muscle uptake): 0.75 ± 0.09 %ID/g
- tissue uptake at 1 h (in vivo; Pancreas uptake): 1.47 ± 0.16 %ID/g
- tissue uptake at 1 h (in vivo; Salivary uptake): 4.99 ± 0.88 %ID/g
- tissue uptake at 1 h (in vivo; Seminal uptake): 1.03 ± 0.27 %ID/g
- tissue uptake at 1 h (in vivo; Spleen uptake): 8.95 ± 3.22 %ID/g
- tissue uptake at 1 h (in vivo; Stomach uptake): 0.41 ± 0.11 %ID/g
- tissue uptake at 1 h (in vivo; Tail uptake): 1.36 ± 0.45 %ID/g
- tissue uptake at 1 h (in vivo; Testes uptake): 1.34 ± 0.22 %ID/g
- tissue uptake at 1 h (in vivo; Thyroid uptake): 2.48 ± 0.44 %ID/g
- tissue uptake at 1 h (in vivo; Tumor uptake): 23.1 ± 6.11 %ID/g
- excreta dose per gram or mL at 1 h (in vivo): 173 ± 93 %ID/g
